Substrate in this data set: O=c1c(-c2ccc(O)cc2)coc2cc(O)cc(O)c12
The data set can be described thus: 3H-genistein uptake into yeast microsomal vesicles, rapid filtration, Hanes-Woolf plot. Format: biochemical, Lupinus albus. Conditions: labelled compound, 5 mM ATP, 10 mM MgCl2, 0.1 M KCl, pH 7.4, 30 s, empty-vector uptake subtracted, proton-driven. The text has this:
3H-genistein uptake into yeast microsomal vesicles, rapid filtration, Hanes-Woolf plot on LaMATE2 | LaMATE2 mediates an efficient transport of genistein which was characterized by a saturable kinetic

This note sets out measurements from publication PMC8570342, “Identification of an Isoflavonoid Transporter Required for the Nodule Establishment of the Rhizobium-Fabaceae Symbiotic Interaction” (Frontiers in Plant Science, 2021).

B1: LaMATE2 (Lupinus albus) (protein)
chain: MEESLIPKQVEQKTERYNEEKQKHKVTWNSFSEEMKRICVVAGPMVIVISSQYLLQVVSTMMVGHLGELYLSSAALAISLSSVTGFSLIMGMASGLETICGQAFGGKQYKRIGTQTYTAILSLTLVSFVLSLLWINMERILVFIGQDPLIAHESGKFIIWLIPALFAYAIMQPLVRYFQMQSLLFPMLISSLVALCIHIPLCWALVYKTRLHNVGGALALGISNWSNVIFLALYMRYSSACAKTRAPISMELFHGIWEFFRFAVPSALMICLEWWSFELLVLLSGLLPNPQLETSVLSVCLNTISTLYTIPFGIGAAASTRVSNELGAGNPHTARIAVLAAMSLAVLETCVVTGTLFACRHIFGYIFSNEKEVVDYVTLMAPLVCISVILDSLQGVLTGIARGCGWQHLGVYVNLGAFYLLGIPAAATLAFWFKLRGKGLWIGIQVGSFVQTLLLSIITSGINWEQQANKAKYRLLEDESSAENSLA
notes: full ORF in pNEV, no tag stated; expressed in Saccharomyces cerevisiae YPH499, microsomal membrane vesicles; 12 predicted transmembrane helices
In the case of B1, the Km (usually the substrate concentration at which the rate is half of its maximum) is 16.2 µM.
